# Positions of bridges follow the written chain, without caps; N, C: chain ends. Non-standard residues stand in square brackets, D forms with d. No end group written: not given here. Pen = CC(C)(S)[C@H](N)C(=O)O; βAla = NCCC(=O)O
# B1: Peptide No. 151 (peptide)
# peptide: QRF[Pen]TGHF[dF][dA]LYPCNGP-NH2
# modifications: disulfide 4-14; N-terminus assumed
# SMILES: CC(C)C[C@@H]1NC(=O)[C@@H](C)NC(=O)[C@@H](Cc2ccccc2)NC(=O)[C@H](Cc2ccccc2)NC(=O)[C@H](Cc2c[nH]cn2)NC(=O)CNC(=O)[C@H]([C@@H](C)O)NC(=O)[C@@H](NC(=O)[C@H](Cc2ccccc2)NC(=O)[C@H](CCCNC(=N)N)NC(=O)[C@@H](N)CCC(N)=O)C(C)(C)SSC[C@@H](C(=O)N[C@@H](CC(N)=O)C(=O)NCC(=O)N2CCC[C@H]2C(N)=O)NC(=O)[C@@H]2CCCN2C(=O)[C@H](Cc2ccc(O)cc2)NC1=O
# B2: Peptide No. 25 (peptide)
# peptide: QRFCGHF[βAla]LYPCNGP-NH2
# modifications: disulfide 4-12; N-terminus assumed
# SMILES: CC(C)C[C@@H]1NC(=O)CCNC(=O)[C@H](Cc2ccccc2)NC(=O)[C@H](Cc2c[nH]cn2)NC(=O)CNC(=O)[C@@H](NC(=O)[C@H](Cc2ccccc2)NC(=O)[C@H](CCCNC(=N)N)NC(=O)[C@@H](N)CCC(N)=O)CSSC[C@@H](C(=O)N[C@@H](CC(N)=O)C(=O)NCC(=O)N2CCC[C@H]2C(N)=O)NC(=O)[C@@H]2CCCN2C(=O)[C@H](Cc2ccc(O)cc2)NC1=O
# notes: printed QRFCGHF-betaAla-LYPCNGP (no Thr)
# B3: Peptide No. 167 (peptide)
# peptide: QRFVTGHFG[dP]LYPVNGP-NH2
# modifications: N-terminus assumed
# SMILES: CC(C)C[C@H](NC(=O)[C@H]1CCCN1C(=O)CNC(=O)[C@H](Cc1ccccc1)NC(=O)[C@H](Cc1c[nH]cn1)NC(=O)CNC(=O)[C@@H](NC(=O)[C@@H](NC(=O)[C@H](Cc1ccccc1)NC(=O)[C@H](CCCNC(=N)N)NC(=O)[C@@H](N)CCC(N)=O)C(C)C)[C@@H](C)O)C(=O)N[C@@H](Cc1ccc(O)cc1)C(=O)N1CCC[C@H]1C(=O)N[C@H](C(=O)N[C@@H](CC(N)=O)C(=O)NCC(=O)N1CCC[C@H]1C(N)=O)C(C)C
# B4: Peptide No. 169 (peptide)
# peptide: QRFVTGHFG[dP]LYPINGP-NH2
# modifications: N-terminus assumed
# SMILES: CC[C@H](C)[C@H](NC(=O)[C@@H]1CCCN1C(=O)[C@H](Cc1ccc(O)cc1)NC(=O)[C@H](CC(C)C)NC(=O)[C@H]1CCCN1C(=O)CNC(=O)[C@H](Cc1ccccc1)NC(=O)[C@H](Cc1c[nH]cn1)NC(=O)CNC(=O)[C@@H](NC(=O)[C@@H](NC(=O)[C@H](Cc1ccccc1)NC(=O)[C@H](CCCNC(=N)N)NC(=O)[C@@H](N)CCC(N)=O)C(C)C)[C@@H](C)O)C(=O)N[C@@H](CC(N)=O)C(=O)NCC(=O)N1CCC[C@H]1C(N)=O
# B5: Peptide No. 174 (peptide)
# peptide: QRFVTGHFG[dP]IYPANGP-NH2
# modifications: N-terminus assumed
# SMILES: CC[C@H](C)[C@H](NC(=O)[C@H]1CCCN1C(=O)CNC(=O)[C@H](Cc1ccccc1)NC(=O)[C@H](Cc1c[nH]cn1)NC(=O)CNC(=O)[C@@H](NC(=O)[C@@H](NC(=O)[C@H](Cc1ccccc1)NC(=O)[C@H](CCCNC(=N)N)NC(=O)[C@@H](N)CCC(N)=O)C(C)C)[C@@H](C)O)C(=O)N[C@@H](Cc1ccc(O)cc1)C(=O)N1CCC[C@H]1C(=O)N[C@@H](C)C(=O)N[C@@H](CC(N)=O)C(=O)NCC(=O)N1CCC[C@H]1C(N)=O
# B6: Peptide No. 175 (peptide)
# peptide: QRFVTGHFG[dP]FYPANGP-NH2
# modifications: N-terminus assumed
# SMILES: CC(C)[C@H](NC(=O)[C@H](Cc1ccccc1)NC(=O)[C@H](CCCNC(=N)N)NC(=O)[C@@H](N)CCC(N)=O)C(=O)N[C@H](C(=O)NCC(=O)N[C@@H](Cc1c[nH]cn1)C(=O)N[C@@H](Cc1ccccc1)C(=O)NCC(=O)N1CCC[C@@H]1C(=O)N[C@@H](Cc1ccccc1)C(=O)N[C@@H](Cc1ccc(O)cc1)C(=O)N1CCC[C@H]1C(=O)N[C@@H](C)C(=O)N[C@@H](CC(N)=O)C(=O)NCC(=O)N1CCC[C@H]1C(N)=O)[C@@H](C)O
# B7: Peptide No. 176 (peptide)
# peptide: QRFVTGHFG[dP]YYPANGP-NH2
# modifications: N-terminus assumed
# SMILES: CC(C)[C@H](NC(=O)[C@H](Cc1ccccc1)NC(=O)[C@H](CCCNC(=N)N)NC(=O)[C@@H](N)CCC(N)=O)C(=O)N[C@H](C(=O)NCC(=O)N[C@@H](Cc1c[nH]cn1)C(=O)N[C@@H](Cc1ccccc1)C(=O)NCC(=O)N1CCC[C@@H]1C(=O)N[C@@H](Cc1ccc(O)cc1)C(=O)N[C@@H](Cc1ccc(O)cc1)C(=O)N1CCC[C@H]1C(=O)N[C@@H](C)C(=O)N[C@@H](CC(N)=O)C(=O)NCC(=O)N1CCC[C@H]1C(N)=O)[C@@H](C)O
# B8: Peptide No. 279 (peptide)
# peptide: RFXTGHFGXXYPC
# modifications: Pen3; Sar9; NMeLeu10; intrachain disulfide; N-termini joined by Bis-dPEG6 diacid linker; C-terminal amide
# B9: Peptide No. 280 (peptide)
# peptide: RFXTGHFGXXYPC
# modifications: sequence analogous to Peptide No. 235; C-termini joined through a branching Lys (Fmoc-Lys(Fmoc)-OH); intrachain disulfide
# notes: dimer
# B10: Peptide No. 286 (peptide)
# peptide: RFXTGHFGXXYPC
# modifications: Pen3; Sar9; NMeLeu10; intrachain disulfide; N-termini joined by Glu (from Boc-Glu(OH)-OH) with a free amine; C-terminal amide
# B11: Peptide No. 287 (peptide)
# peptide: RFXTGHFGXXYPCG
# modifications: Pen3; Sar9; NMeLeu10; intrachain disulfide; C-termini joined through a branching Lys
# notes: dimer made as Peptide No. 280
# B12: Peptide No. 288 (peptide)
# peptide: RFXTGHFGXXYPCGG
# modifications: Pen3; Sar9; NMeLeu10; intrachain disulfide; C-termini joined through a branching Lys
# notes: dimer made as Peptide No. 280
# B13: Peptide No. 289 (peptide)
# peptide: RFXTGHFGXXYPC
# modifications: Pen3; Sar9; NMeLeu10; intrachain disulfide; N-termini joined by Asp; linker amine acylated with PEG 30 kDa succinimidyl ester; C-terminal amide
# notes: also called pegylated analog of Peptide No. 285
# Target: T1, soluble human FcRn (shFcRn) (human, UniProt P55899 24-297; P61769 21-119, biotinylated with Sulfo-NHS-LC-Biotin in the ELISA; amine-coupled to a CM5 chip in SPR)
# T1 construct: also called biotinylated shFcRn
# T1 sequence (P55899 24-297 limits assumed, chain 1 of 2): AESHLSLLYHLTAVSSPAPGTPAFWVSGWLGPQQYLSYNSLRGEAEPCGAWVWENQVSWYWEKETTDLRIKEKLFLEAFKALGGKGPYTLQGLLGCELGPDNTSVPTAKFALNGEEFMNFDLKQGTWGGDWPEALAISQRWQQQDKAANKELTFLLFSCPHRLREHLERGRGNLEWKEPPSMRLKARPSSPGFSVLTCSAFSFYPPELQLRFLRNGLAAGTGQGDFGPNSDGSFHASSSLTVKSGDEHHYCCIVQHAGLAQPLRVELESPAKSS
# T1 sequence (P61769 21-119 limits assumed, chain 2 of 2): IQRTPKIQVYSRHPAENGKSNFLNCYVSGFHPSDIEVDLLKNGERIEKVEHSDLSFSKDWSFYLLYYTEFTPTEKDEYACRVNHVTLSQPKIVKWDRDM
# Experiment: competition ELISA vs human IgG
# Description: The wells were coated with 100 μl/well of 1 μg/ml biotinylated-shFcRn in Buffer A. The plate was sealed and incubated at 37° C. for 2 hours. Afterwards, the plate was washed with 200 μl/well of Buffer B (Buffer B: 100 mM MES pH 6, 150 mM NaCl, 0.5% BSA IgG-free (Jackson ImmunoResearch, West Grove, Pa.), 0.05% Tween-20). […] To allow for mixing, the plate was rocked for 2 minutes, sealed and incubated at 37° C. for 2 hours. […] The plate was covered, incubated for 30 minutes at room temperature and washed 4 times with 200 μl/well of ice-cold buffer B. SureBlue TMB substrate solution (100 μl/well, KPL, Gaithersburg, Md.) was added and the plate was allowed to incubate at room temperature until color developed, which took 5 to 10 minutes. Once color developed, 100 μl/well of TMB stop solution (KPL, Gaithersburg, Md.) was added and the absorbance was measured at 450 nm.
row,Binder,IC50 [µM]
1,QRFXTGHFXGLYPCNGP (Pen4; D-Arg9; disulfide; C-terminal amide) [Peptide No. 49],4.1
2,QRFXTGHFXGLYPCNGP (Pen4; D-Tyr9; disulfide; C-terminal amide) [Peptide No. 53],3.2
3,B1,4.3
4,QRXXTGHFGGLYPCNGP (D-Phe3; Pen4; disulfide; C-terminal amide) [Peptide No. 96],11.4
5,QRFCTGHFGGLFPCNGP (disulfide; C-terminal amide) [Peptide No. 26],> 125
6,B2,> 125
7,B3,93
8,B4,72
9,QRFVTGHFGXLYPYNGP (D-Pro10; unbridged; C-terminal amide) [Peptide No. 171],150
10,QRFVTGHFGXLYPWNGP (D-Pro10; unbridged; C-terminal amide) [Peptide No. 172],150
11,B5,94
12,B6,200
13,B7,230
14,B8,0.007
15,B9,0.025
16,B10,0.0056
17,B11,0.02
18,B12,0.016
19,B13,0.018
20,QRFCTGHFGGLYPXNGP (D-Cys14; disulfide; C-terminal amide) [Peptide No. 30],125

# Source: patent US8906844B2 (SYNTONIX PHARMACEUTICALS, dated 2014)
